This note sets out measurements from paper PMC8086558, “Membrane Interactions of the Peroxisomal Proteins PEX5 and PEX14” (Frontiers in Cell and Developmental Biology, 2021).

What is called Kd is the concentration at which binding is half-saturated. A low value points to higher affinity. Broadly, the stoichiometry N is the number of molecules, sites or subunits per partner or assembly.

B1: PEX14 NTD (residues 1–104) (domain or fragment, human, UniProt O75381 1-104, looked up)
chain: MASSEQAEQPSQPSSTPGSENVLPREPLIATAVKFLQNSRVRQSPLATRRAFLKKKGLTDEEIDMAFQQSGTAADEPSSLGPATQVVPVQPPHLISQPYSPAGS
notes: human PEX14, N-terminal region up to the transmembrane span, residues 1-104, codon-optimised synthetic gene; holds the globular helical domain (residues 16-80); also called PEX14 (1–104); Pex14 (1–104); source: E. coli BL21 (DE3), purified (Ni-NTA, TEV cleavage, reverse Ni2+ column, SEC Superdex S75); not shown: His6, N-terminal, cleaved
B2: PEX5 NTD (residues 1–315) (domain or fragment)
chain: not shown
notes: human PEX5, N-terminal intrinsically disordered domain, residues 1-315, codon-optimised synthetic gene; harbours eight WF-like motifs (W0-W7); No primer pair is printed for the 1-315 construct; also called PEX5 (1–315); Pex5 (1–315); source: E. coli BL21 (DE3), purified (Ni-NTA under urea lysis, SEC Superdex S75), lyophilized; not shown: His6, N-terminal, kept

Holding throughout (settings): both partners purified
In test [1] the target is B2. Kind of test: ITC; 50 uM PEX5 (1-315) injected into the cell with 30 uM PEX14 (1-104); 25 °C; 20 mM NaP pH 6.5, 100 mM NaCl, no bicelles; triplicates; one-site model, number of sites set to 1/8. Background: In ITC the heat of successive injections is recorded.
Test [2] concerns the target B2. Kind of test: ITC; 50 uM PEX5 (1-315) injected into the cell with 30 uM PEX14 (1-104); 25 °C; 20 mM NaP pH 6.5, 100 mM NaCl with 44 uM DMPC/D7PC bicelles; triplicates; one-site model, number of sites set to 1/8.
Test [3] addresses B1. Kind of test: ITC; 50 uM PEX5 (1-315) injected into the cell with 30 uM PEX14 (1-104); 25 °C; 20 mM NaP pH 6.5, 100 mM NaCl, no bicelles; triplicates; one-site model, number of sites set to 1/8.
In test [4] the target is B1. As to the kind of experiment: ITC; 50 uM PEX5 (1-315) injected into the cell with 30 uM PEX14 (1-104); 25 °C; 20 mM NaP pH 6.5, 100 mM NaCl with 44 uM DMPC/D7PC bicelles; triplicates; one-site model, number of sites set to 1/8.

Regarding B1, the dissociation constant (Kd) in test [1] was found to be 147 ± 16 nM; in test [2], 260 ± 26 nM.

As to B2, in test [3], the dH is -147 ± 7 kcal/mol and the “stoichiometry N” value was 0.125. Also, in test [4], the dH is -92 ± 3 kcal/mol and the “stoichiometry N” value stood at 0.125.
